Results reported in the RNAGym collection of RNA variant scans (doi:10.7554/elife.90254).

B1: OR4K15 (parent)
chain: GUUAACGGUCAUAGGCCAUGGAAACUAGGAGCACCAUUUCGCUGCCAGUGAAGAAAUGAACAAAGAAAAUCUGGGCCAGGCAGGCAUCAAAAGAAAUAGUCUUGCGCUCAACCAGAAAGUCUGUAAUCAUUUUAAGGGUA

Variants of: B1
Assay: self-cleavage, relative activity (ratio to wild type); higher = more cleavage; in vitro, sequencing; the parent is a self-cleaving ribozyme

Row | Variant | self-cleavage
1 | GUUAACGGUCAUAGGCCAUGGAAACUAGGAGCACCAUUUCGCUGCCAGUGAAGAAAUGAACAAAGAAAAUCGGGGCCAGGCAGGCAUCAAAAGGAAUAGUCUUGCGCUCAACCAGAAAGUCUGUAAUCAUUUUAAGGGUA [U72G A94G] | 0.09
2 | GUUAACGGUCAUAGGCCAUGGAAACUAGGAGCACCAUUUCGCUGCCAGUGAAGAAAUGAACAAAGGUAAUCUGGGCCAGGCAGGCAUCAAAAGAAAUAGUCUUGCGCUCAACCAGAAAGUCUGUAAUCAUUUUAAGGGUA [A66G A67U] | 1.61
3 | GUUAACGGUCUCAGGCCAUGGAAACUAGGAGCACCAUUUCGCUGCCAGUGAAGAAAUGAACAAAGAAAAUCUGGGCCAGGCAGGCAUCAAAAGAAAUAGUCUUGCGCUCAACCAGAAAGUCUGUAAUCAUUUUAAGGGUA [A11U U12C] | 0.97
4 | GUUAACGGUCAUAGGCCAUGGAAACUAGGAGCACCAUUUCGCUGCCAGUGAAGAAAUGAACAAAGAAAAUCUGGGCCUGGCAGGCAUCAGAAGAAAUAGUCUUGCGCUCAACCAGAAAGUCUGUAAUCAUUUUAAGGGUA [A78U A90G] | 0.32
5 | GUUAACGGUCAUAGGCCAUGGAAACUAGGAGCACCAUUUCGCUGCCAGUGAAGAAAUGAACAAAGAAAAUCUGGGCCAGGCAGGCAUCGAAAGAAAUAGUCUUGCGCUCAGCCAGAAAGUCUGUAAUCAUUUUAAGGGUA [A89G A111G] | 0.02
6 | GUUAACGGUCAUAGGCCAUGGAAACUAGGAGCACCAUUUCGCUGUCAGUGAAGAAAUGAACAAAGAAAAUCUGGGCCAGGCAGGCAUCAAAAGAAAUAGUCUUGCGCUCAACCAGAAAGUCUGUAAUCAUUCUAAGGGUA [C45U U132C] | 0.61
7 | GUUAACGGUCAUAGGCCAUGGAAACUAGGAGCACCAUUUCGCUGCCAGUGAAGAAAUGAACAAAGAAAAUAUGGGCCAGGCAGGCAUCAAAAGAAAUAGUCUUGCGCUCAACCAGAAAGUCUGUAAUCAUUUUAAGGGUA [C71A] | 0.61
8 | GUUAACGGCCAUAGGCCAUGGAAACUAGGAGCACCAUUUCGCUGCCAGUGAAGAAAUGAACAAAGAAAAUCUGGGCCAGGCCGGCAUCAAAAGAAAUAGUCUUGCGCUCAACCAGAAAGUCUGUAAUCAUUUUAAGGGUA [U9C A82C] | 0.07
9 | GUUAACGGUCAUAGGCCAUGGAAACUAGGAGCACCAUUUCGCUGCCAGUGAAGAAAUGAACAAAGAAAAUCUGGGCCAGGCAGGCAUCAAAAGAAAUAGUCUUGCGCUCAACCAGAAAGUCUGUGAUCAUUUUAAGGCUA [A125G G138C] | 0.83
10 | GUUAACGGUCAUAGGCCAUGGAAACUAGGAGCCCCAUUUCGCUGCCAGUGAAGAAAUGAACAAAGAAAAUCUGGGCCAGGCAGGCAUCAAAAGAAAUAGUCUUGCGCUCAGCCAGAAAGUCUGUAAUCAUUUUAAGGGUA [A33C A111G] | 0.03
11 | GUUAACGGUCAUAGGCCAUCGAAACUAGGAGCACCAUUUCGCUGCCAGUGAAGAAAUGAACAAAGAAAAUCUGGGCCAGGCAGGCAUCAAAAGAAAUAGUCUUGCGCUCAACCAGAAAGUCUGAAAUCAUUUUAAGGGUA [G20C U124A] | 0.67
12 | GUUAACGGUCAUAGGCCAUGGAAACUAGGAGCACCAUUUCGCUGCCAGUGAAGAAAUGAACAAUGAAAAUCUGGGCCAGGCAGGCAUCAAAAGAAAUAGUCUUGCGCUCAACCAGGAAGUCUGUAAUCAUUUUAAGGGUA [A64U A116G] | 0.21
13 | GUUAACGGUCAUAGGCCAUGGAAACUAGGAGCACCAUUUCGCUGCCAGUGAAGAAAUGAACAAAGAAAAUCUGGGCCAGGCAGGCAUCAAAAGAAAUAGUCUGACGCUCAACCAGAAAGUCUGUAAUCAUUUUAAGGGUA [U103G G104A] | 0.59
14 | GUUAACGGUCAUAGGCCAUGGAAACUAGGAGCACCAUUUCGCUGCCAGUGAAGAAAUGAACAAAGAAAAUCUGGGCCAGGCAGGCAUCAUAAGAAAUAGUCUUGCGCUCAACCAGAAAGUCUGUAAUCAUUAUAAGGGUA [A90U U132A] | 0.72
15 | GUUAACGGUCAUAGGCCAUGGAAACUAGGAGCACCAUUUCGCUGCCAGUGAAGAAAUGAACAAAGAAAACCUGGGCCAGGCAGGCAUCAAAAGAAAUAGUCUUGCGUUCAACCAGAAAGUCUGUAAUCAUUUUAAGGGUA [U70C C107U] | 0.02
16 | GUUAACGGUCAUAGGCCAUGGAAACUAGGAGCACCAUUUCGCUGCCAGUGAAGAAAUGAACAAAGAAAAUCUGGGCCAGGCAGGCAUCAAAAGAAAUAGUCUUGCGCUCUACCAGAAAGUCUGUAGUCAUUUUAAGGGUA [A110U A126G] | 1.05
17 | GUUAACGGUCAUAGGCCAUGGAAACUAGGAGCACCAUUGCGCUGCCAGUGAAGAAAUGAACAAAGAAAAUCUGGGCCAGGCAGGCAUCAAAAGAGAUAGUCUUGCGCUCAACCAGAAAGUCUGUAAUCAUUUUAAGGGUA [U39G A95G] | 1.81
18 | GUUAACGGUCAUAGGCCAUGGAAGCUAGGAGCACCACUUCGCUGCCAGUGAAGAAAUGAACAAAGAAAAUCUGGGCCAGGCAGGCAUCAAAAGAAAUAGUCUUGCGCUCAACCAGAAAGUCUGUAAUCAUUUUAAGGGUA [A24G U37C] | 1.12
19 | GUUAACGGUCAUAGGCCAUGGAAACUAGGAGCACCAUUUCGCUGCCAGUGAAGAAAUGAACAAAGAAAAUCUGGGCCAGGCAGGCAUCAAAAGAAAUAGUCUUGCGCUCAACCAGAAAGUCUGUGAUCACUUUAAGGGUA [A125G U130C] | 0.53
20 | GUUAACGGUCAUAGGCCAUGGAAACUAGGAGCACCAUUUCGCUGCCAGUGAAGAAAUGAACAAAGAAAAUCUGGGCCAGGCAGGCAUCAAGAGAAAUAGUCUUGCGCUCAACCAGAAAGUCUGUAAUCACUUUAAGGGUA [A91G U130C] | 0.54
21 | GUUAACGGUCAUAGGCCAUGGAAACUGGGAGCACCAUUUCGCUGCCAGUGAAGAAAUGAACAAAGAAAAUCUGGGCCAGGCAGGCAUCAAAAGAAAUAGUCUUGAGCUCAACCAGAAAGUCUGUAAUCAUUUUAAGGGUA [A27G C105A] | 0.04
